Measured values published in patent US20140087995A1 (published 2014).
Numbered stars: 1 amine (or outer) side, 2 acyl side, 3 side chain; on linkers, the order of the positions; unused ones are H or OH. Bridge positions count the residues as written; N and C are the ends. Side chains are listed from the residue outwards. Ends that are not written are not given here. * marks the point of attachment. C20 diacid = O=C(O)CCCCCCCCCCCCCCCCCCC(=O)*; γGlu = O=C(O)[C@H](CCC(=O)[*:2])N[*:1]

T1: human amylin 3(a) receptor (human calcitonin receptor co-expressed with RAMP-3) (human, UniProt P30988 25-474; O60896 24-148, limits assumed)
T1 construct: whole, on cells; Whole cells in the luciferase assay (Assay (II)a); also called hAmylin-R; hAmylinR
T1 sequence (looked up) 1: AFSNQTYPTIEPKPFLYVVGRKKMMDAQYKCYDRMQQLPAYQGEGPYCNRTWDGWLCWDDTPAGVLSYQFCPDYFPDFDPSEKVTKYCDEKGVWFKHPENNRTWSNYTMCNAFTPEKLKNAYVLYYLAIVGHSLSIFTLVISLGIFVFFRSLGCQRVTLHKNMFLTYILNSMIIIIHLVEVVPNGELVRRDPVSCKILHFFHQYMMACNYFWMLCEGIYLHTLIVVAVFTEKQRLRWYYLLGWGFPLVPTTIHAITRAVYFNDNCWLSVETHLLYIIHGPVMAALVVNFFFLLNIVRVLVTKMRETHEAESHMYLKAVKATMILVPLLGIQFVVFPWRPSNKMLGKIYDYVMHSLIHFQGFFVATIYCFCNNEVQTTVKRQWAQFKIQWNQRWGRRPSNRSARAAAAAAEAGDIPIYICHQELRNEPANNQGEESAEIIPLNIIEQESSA
T1 sequence (looked up) 2: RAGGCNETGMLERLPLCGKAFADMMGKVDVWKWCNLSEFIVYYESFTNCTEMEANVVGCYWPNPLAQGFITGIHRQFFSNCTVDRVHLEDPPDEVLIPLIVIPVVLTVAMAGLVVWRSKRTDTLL

T2: human calcitonin receptor (human, UniProt P30988 25-474)
T2 sequence (looked up): T1 sequence (looked up) 1

B1: N^ε1-[(4S)-4-carboxy-4-(19-carboxynonadecanoylamino)butanoyl]-[Glu14,Arg17,Pro21,Pro27,Pro34,Pro37]-h-amylin (peptide)
peptide: K([γGlu-C20 diacid])CNTATCATQRLAEFLRHSSPNFGAIPSSTNVGPNTP-NH2
modifications: disulfide 2-7; N-terminus assumed
SMILES: CC[C@H](C)[C@H](NC(=O)[C@H](C)NC(=O)CNC(=O)[C@H](Cc1ccccc1)NC(=O)[C@H](CC(N)=O)NC(=O)[C@@H]1CCCN1C(=O)[C@H](CO)NC(=O)[C@H](CO)NC(=O)[C@H](Cc1c[nH]cn1)NC(=O)[C@H](CCCNC(=N)N)NC(=O)[C@H](CC(C)C)NC(=O)[C@H](Cc1ccccc1)NC(=O)[C@H](CCC(=O)O)NC(=O)[C@H](C)NC(=O)[C@H](CC(C)C)NC(=O)[C@H](CCCNC(=N)N)NC(=O)[C@H](CCC(N)=O)NC(=O)[C@@H](NC(=O)[C@H](C)NC(=O)[C@@H]1CSSC[C@H](NC(=O)[C@@H](N)CCCCNC(=O)CC[C@H](NC(=O)CCCCCCCCCCCCCCCCCCC(=O)O)C(=O)O)C(=O)N[C@@H](CC(N)=O)C(=O)N[C@@H]([C@@H](C)O)C(=O)N[C@@H](C)C(=O)N[C@@H]([C@@H](C)O)C(=O)N1)[C@@H](C)O)C(=O)N1CCC[C@H]1C(=O)N[C@@H](CO)C(=O)N[C@@H](CO)C(=O)N[C@H](C(=O)N[C@@H](CC(N)=O)C(=O)N[C@H](C(=O)NCC(=O)N1CCC[C@H]1C(=O)N[C@@H](CC(N)=O)C(=O)N[C@H](C(=O)N1CCC[C@H]1C(N)=O)[C@@H](C)O)C(C)C)[C@@H](C)O
B2: N^ε1-[(4S)-4-carboxy-4-[[(4S)-4-carboxy-4-(19-carboxynonadecanoylamino)butanoyl]amino]butanoyl]-[Glu14,Arg17,Pro21,Pro27,Arg34,Glu35]-h-amylin (peptide)
peptide: K([γGlu-γGlu-C20 diacid])CNTATCATQRLAEFLRHSSPNFGAIPSSTNVGRETY-NH2
modifications: disulfide 2-7; N-terminus assumed
SMILES: CC[C@H](C)[C@H](NC(=O)[C@H](C)NC(=O)CNC(=O)[C@H](Cc1ccccc1)NC(=O)[C@H](CC(N)=O)NC(=O)[C@@H]1CCCN1C(=O)[C@H](CO)NC(=O)[C@H](CO)NC(=O)[C@H](Cc1c[nH]cn1)NC(=O)[C@H](CCCNC(=N)N)NC(=O)[C@H](CC(C)C)NC(=O)[C@H](Cc1ccccc1)NC(=O)[C@H](CCC(=O)O)NC(=O)[C@H](C)NC(=O)[C@H](CC(C)C)NC(=O)[C@H](CCCNC(=N)N)NC(=O)[C@H](CCC(N)=O)NC(=O)[C@@H](NC(=O)[C@H](C)NC(=O)[C@@H]1CSSC[C@H](NC(=O)[C@@H](N)CCCCNC(=O)CC[C@H](NC(=O)CC[C@H](NC(=O)CCCCCCCCCCCCCCCCCCC(=O)O)C(=O)O)C(=O)O)C(=O)N[C@@H](CC(N)=O)C(=O)N[C@@H]([C@@H](C)O)C(=O)N[C@@H](C)C(=O)N[C@@H]([C@@H](C)O)C(=O)N1)[C@@H](C)O)C(=O)N1CCC[C@H]1C(=O)N[C@@H](CO)C(=O)N[C@@H](CO)C(=O)N[C@H](C(=O)N[C@@H](CC(N)=O)C(=O)N[C@H](C(=O)NCC(=O)N[C@@H](CCCNC(=N)N)C(=O)N[C@@H](CCC(=O)O)C(=O)N[C@H](C(=O)N[C@@H](Cc1ccc(O)cc1)C(N)=O)[C@@H](C)O)C(C)C)[C@@H](C)O
B3: N^ε1-[(4S)-4-carboxy-4-[[(4S)-4-carboxy-4-(19-carboxynonadecanoylamino)butanoyl]amino]butanoyl]-[Glu14,Arg17,Pro21,Pro27,Pro34,Glu35]-h-amylin (peptide)
peptide: K([γGlu-γGlu-C20 diacid])CNTATCATQRLAEFLRHSSPNFGAIPSSTNVGPETY-NH2
modifications: disulfide 2-7; N-terminus assumed
SMILES: CC[C@H](C)[C@H](NC(=O)[C@H](C)NC(=O)CNC(=O)[C@H](Cc1ccccc1)NC(=O)[C@H](CC(N)=O)NC(=O)[C@@H]1CCCN1C(=O)[C@H](CO)NC(=O)[C@H](CO)NC(=O)[C@H](Cc1c[nH]cn1)NC(=O)[C@H](CCCNC(=N)N)NC(=O)[C@H](CC(C)C)NC(=O)[C@H](Cc1ccccc1)NC(=O)[C@H](CCC(=O)O)NC(=O)[C@H](C)NC(=O)[C@H](CC(C)C)NC(=O)[C@H](CCCNC(=N)N)NC(=O)[C@H](CCC(N)=O)NC(=O)[C@@H](NC(=O)[C@H](C)NC(=O)[C@@H]1CSSC[C@H](NC(=O)[C@@H](N)CCCCNC(=O)CC[C@H](NC(=O)CC[C@H](NC(=O)CCCCCCCCCCCCCCCCCCC(=O)O)C(=O)O)C(=O)O)C(=O)N[C@@H](CC(N)=O)C(=O)N[C@@H]([C@@H](C)O)C(=O)N[C@@H](C)C(=O)N[C@@H]([C@@H](C)O)C(=O)N1)[C@@H](C)O)C(=O)N1CCC[C@H]1C(=O)N[C@@H](CO)C(=O)N[C@@H](CO)C(=O)N[C@H](C(=O)N[C@@H](CC(N)=O)C(=O)N[C@H](C(=O)NCC(=O)N1CCC[C@H]1C(=O)N[C@@H](CCC(=O)O)C(=O)N[C@H](C(=O)N[C@@H](Cc1ccc(O)cc1)C(N)=O)[C@@H](C)O)C(C)C)[C@@H](C)O
B4: N^ε1-[(4S)-4-carboxy-4-(19-carboxynonadecanoylamino)butanoyl]-[His14,Arg17,Pro21,Pro27,Pro34,Pro37]-h-amylin (peptide)
peptide: K([γGlu-C20 diacid])CNTATCATQRLAHFLRHSSPNFGAIPSSTNVGPNTP-NH2
modifications: disulfide 2-7; N-terminus assumed
SMILES: CC[C@H](C)[C@H](NC(=O)[C@H](C)NC(=O)CNC(=O)[C@H](Cc1ccccc1)NC(=O)[C@H](CC(N)=O)NC(=O)[C@@H]1CCCN1C(=O)[C@H](CO)NC(=O)[C@H](CO)NC(=O)[C@H](Cc1c[nH]cn1)NC(=O)[C@H](CCCNC(=N)N)NC(=O)[C@H](CC(C)C)NC(=O)[C@H](Cc1ccccc1)NC(=O)[C@H](Cc1c[nH]cn1)NC(=O)[C@H](C)NC(=O)[C@H](CC(C)C)NC(=O)[C@H](CCCNC(=N)N)NC(=O)[C@H](CCC(N)=O)NC(=O)[C@@H](NC(=O)[C@H](C)NC(=O)[C@@H]1CSSC[C@H](NC(=O)[C@@H](N)CCCCNC(=O)CC[C@H](NC(=O)CCCCCCCCCCCCCCCCCCC(=O)O)C(=O)O)C(=O)N[C@@H](CC(N)=O)C(=O)N[C@@H]([C@@H](C)O)C(=O)N[C@@H](C)C(=O)N[C@@H]([C@@H](C)O)C(=O)N1)[C@@H](C)O)C(=O)N1CCC[C@H]1C(=O)N[C@@H](CO)C(=O)N[C@@H](CO)C(=O)N[C@H](C(=O)N[C@@H](CC(N)=O)C(=O)N[C@H](C(=O)NCC(=O)N1CCC[C@H]1C(=O)N[C@@H](CC(N)=O)C(=O)N[C@H](C(=O)N1CCC[C@H]1C(N)=O)[C@@H](C)O)C(C)C)[C@@H](C)O

What follows are binders tested against T1, human amylin 3(a) receptor (human …) (assay: SPA competition binding, membranes of Amylin 3(a)/CRE-luc BHK cells, displacement of 125I-rat amylin (Assay (V))).
Procedure: The binding assay was performed using scintillation proximity assay (SPA) beads (RPNQ0001) from PerkinElmer and cell membranes from the Amylin 3(a)/CRE-luc cells (as described in Assay (II)) were used. Membranes were prepared in the following way; the cells were rinsed with PBS and incubated with Versene for approximately 5 min before harvesting. The cells were flushed with PBS and the cell-suspension was centrifuged for 5 min at 1000 rpm. Cells were homogenized (ultrathurrax) in a buffer containing 20 mM Na-HEPES and 10 mM EDTA (pH 7.4) and centrifuged at 20.000 rpm for 15 min. The resulting pellet was resuspended, homogenized and centrifuged (20.000 rpm, 15 min) in a buffer containing 20 mM Na-HEPES and 0.1 mM EDTA (pH 7.4, buffer 2). The resulting pellet was resuspended in buffer 2 and protein concentration was measured (BCA protein Assay, Pierce). The homogenate was kept cold during the whole procedure. The membranes were kept at −80° C. until use. The assay was performed in a 384 well Optiplate (PerkinElmer) in a total volume of 40 ul. Membranes were mixed with SPA beads. Final concentration of membranes 35 ng/μL final and SPA beads was 0.05 mg/well. Test-compounds were dissolved in DMSO and further diluted in assay buffer (50 mM Hepes, pH 7.4, 1 mM CaCl2, 5 mM MgCl₂, 0.1% OA and 0.02% Tween20). […] The final mixture was incubated with shaking at 400 rpm for 120 min at 25° C. prior to centrifugation (1500 rpm, 10 min). Samples were analyzed on TopCounter™ (Packard). The IC₅₀ was calculated using (one site binding competition analysis) GraphPad Prism5 as a measure of receptor affinity.

Row | IC50 | Binder
1 | 0.214 nM | B1
2 | 0.957 nM | B2
3 | 0.121 nM | B3
4 | 0.131 nM | B4

Each binder was assayed against T1, human amylin 3(a) receptor (human …) (assay: cell-based or functional assay).

Row | hAmylin-R funct. EC50 | Binder
5 | 0.105 nM | B1
6 | 0.703 nM | B2
7 | 0.225 nM | B3
8 | 0.052 nM | B4

These binders were tested against T2, human calcitonin receptor (assay: cell-based or functional assay).

Row | Ratio hCT/hAmylin funct. | hCTR funct. EC50 | Binder
9 | 0.9 | 0.09 nM | B1
10 | 10.6 | 7.43 nM | B2
11 | 10.5 | 2.36 nM | B3
12 | 0.8 | 0.04 nM | B4
